From US20250002593A1

B1: ANB019 (antibody, V domains shown)
VH: QVQLVQSGAEVKKPGASVKVSCKASGYTFTNYWMNWVRQAPRQGLEWMGMFHPTGDVTRLNQKFKDRVTMTRDTSTSTVYMELSSLRSEDTAVYYCARTTSMIIGGFAYWGQGTLVTVSS
VL: DIVMTQTPLSLSVTPGQPASISCRSSKSLLHRNAITYFYWYLHKPGQPPQLLIYQMSNLASGVPDRFSGSGSGTDFTLKISRVEAEDVGVYYCAQNLELPLTFGGGTKVEIK
B2: BI655130 (antibody, V domains shown)
VH: QVQLVQSGAEVKKPGASVKVSCKASGYSFTSSWIHWVKQAPGQGLEWMGEINPGNVRTNYNENFRNKVTMTVDTSISTAYMELSRLRSDDTAVYYCTVVFYGEPYFPYWGQGTLVTVSS
VL: QIVLTQSPGTLSLSPGERATMTCTASSSVSSSYFHWYQQKPGQAPRLWIYRTSRLASGVPDRFSGSGSGTDFTLTISRLEPEDAATYYCHQFHRSPLTFGAGTKLEIK
B3: REGN14 (antibody, V domains shown)
VH: EVQLVESGGDLVQPGRSLRLSCAASGFTFDDYAMHWVRQAPGKGLEWVSVISWNSDVIAYSDSVKGRFTISRDNAKNSLYLQMNSLRTEDTALYYCTKGHKWSFFDYWGQGTLVTVSS
VL: EIVLTQSPATLSLSPGERATLSCRASQSISSYLAWYQQKPGQAPRLLIFNVANRATDIPARFSGSGSGTDFTLTISSLEPEDFAVYYCQQRSNWPLTFGGGTKVEIK

These binders were tested against membrane cyno IL-36R (cynomolgus) (assay: binding to cynomolgus IL-36R; the legend and Example 8 say membrane cyno IL-36R on transfected HEK293 cells by FACS, but the y axis on the sheet is OD450 nm; unit taken from the x axis).

Which EC50 does the source give for B1 here?
The EC50 was 0.0132 µg/mL.

B2 was tested. Which EC50 did it give?
Its EC50 is 0.196 µg/mL.

B3 was tested. Which EC50 did it give?
Its EC50 is 0.0059 µg/mL.
